{"source": "paper PMC6523895", "about": "“Evidence of Destabilization of the Human Thymidylate Synthase (hTS) Dimeric Structure Induced by the Interface Mutation Q62R” (Biomolecules, 2019)", "proteins": {"B1": {"name": "His6-tag human thymidylate synthase (HT-hTS), wild type (enzyme, UniProt P04818 1-313, looked up)", "chain": "MPVAGSELPRRPLPPAAQERDAEPRPPHGELQYLGQIQHILRCGVRKDDRTGTGTLSVFGMQARYSLRDEFPLLTTKRVFWKGVLEELLWFIKGSTNAKELSSKGVKIWDANGSRDFLDSLGFSTREEGDLGPVYGFQWRHFGAEYRDMESDYSGQGVDQLQRVIDTIKTNPDDRRIIMCAWNPRDLPLMALPPCHALCQFYVVNSELSCQLYQRSGDMGLGVPFNIASYALLTYMIAHITGLKPGDFIHTLGDAHIYLNHIEPLKIQLQREPRPFPKLRILRKVEKIDDFKAEDFQIEGYNPHPTIKMEMAV", "notes": "human thymidylate synthase (TS, EC 2.1.1.45); The non-cleavable N-terminal His6-tag comes from the pQE80L plasmid; also called wild-type hTS; human TS; not shown: His6, N-terminal, kept"}, "B2": {"name": "His6-tag human thymidylate synthase variant Q62R (HT-hTS Q62R) (enzyme, UniProt P04818 1-313, looked up)", "chain": "B1 chain with Q62R", "modifications": "Cys195 modified as S,S-(2-hydroxyethyl)thiocysteine (CME195) in the crystal, by reaction with beta-mercaptoethanol", "notes": "human thymidylate synthase (TS, EC 2.1.1.45) with Gln62 replaced by arginine; plasmid pQE80L-hTS-Q62R made by site-directed mutagenesis of pQE80L-hTS; Non-cleavable N-terminal His6-tag (twelve residues belong to the tag); in the crystal the first twenty-five N-terminal residues and the tag are not traced; also called Q62R variant; not shown: His6, N-terminal, kept"}}, "key": {"[1]": {"target": "the molecule itself", "test": "SEC; HiLoad 16/600 Superdex 75pg, last step of purification, sample dialysed in buffer A (50 mM HEPES pH 7.5, 30 mM NaCl); profile not shown"}, "[2]": {"target": "the molecule itself", "test": "crystal structure; X-ray, 2.55 A, space group P2(1)22(1), four homodimers (eight subunits) in the asymmetric unit; crystals from 2.0-2.2 M ammonium sulfate, 100 mM bicine pH 9.0, with 20 mM beta-mercaptoethanol, 20 C"}}, "note": "Positions count from the first letter of the chain named. Names and notes keep the numbering of the source."}
{"protein": "B1", "values": [{"measurement": "stoichiometry N", "setting": "[1]", "value": 2}]}
{"protein": "B2", "values": [{"measurement": "binding result", "setting": "[2]", "value": "binds"}]}
